According to IntAct's records for PubMed 19762560:

B1: Synphilin-1 (Homo sapiens), Q9Y6H5 (parent)
chain: MEAPEYLDLDEIDFSDDISYSVTSLKTIPELCRRCDTQNEDRSVSSSSWNCGISTLITNTQKPTGIADVYSKFRPVKRVSPLKHQPETLENNESDDQKNQKVVEYQKGGESDLGPQPQELGPGDGVGGPPGKSSEPSTSLGELEHYDLDMDEILDVPYIKSSQQLASFTKVTSEKRILGLCTTINGLSGKACSTGSSESSSSNMAPFCVLSPVKSPHLRKASAVIHDQHKLSTEETEISPPLVKCGSAYEPENQSKDFLNKTFSDPHGRKVEKTTPDCQLRAFHLQSSAAESKPEEQVSGLNRTSSQGPEERSEYLKKVKSILNIVKEGQISLLPHLAADNLDKIHDENGNNLLHIAASQGHAECLQHLTSLMGEDCLNERNTEKLTPAGLAIKNGQLECVRWMVSETEAIAELSCSKDFPSLIHYAGCYGQEKILLWLLQFMQEQGISLDEVDQDGNSAVHVASQHGYLGCIQTLVEYGANVTMQNHAGEKPSQSAERQGHTLCSRYLVVVETCMSLASQVVKLTKQLKEQTVERVTLQNQLQQFLEAQKSEGKSLPSSPSSPSSPASRKSQWKSPDADDDSVAKSKPGVQEGIQVLGSLSASSRARPKAKDEDSDKILRQLLGKEISENVCTQEKLSLEFQDAQASSRNSKKIPLEKRELKLARLRQLMQRSLSESDTDSNNSEDPKTTPVRKADRPRPQPIVESVESMDSAESLHLMIKKHTLASGGRRFPFSIKASKSLDGHSPSPTSESSEPDLESQYPGSGSIPPNQPSGDPQQPSPDSTAAQKVATSPKSALKSPSSKRRTSQNLKLRVTFEEPVVQMEQPSLELNGEKDKDKGRTLQRTSTSNESGDQLKRPFGAFRSIMETLSGNQNNNNNYQAANQLKTSTLPLTSLGRKTDAKGNPASSASKGKNKAA

Variants of: B1
Settings: with syua_human SNCA

Effect of a mutation on the interaction, decreasing interaction:
K524A
V523N
K527A
A519N
